Data from publication PMC5504686 (Molecular genetics and metabolism, 2017).

T1: alpha subunit of mature G172D Flavobacterium glycosylasparaginase (Flavobacterium, UniProt Q47898 46-196)
T1 sequence (looked up): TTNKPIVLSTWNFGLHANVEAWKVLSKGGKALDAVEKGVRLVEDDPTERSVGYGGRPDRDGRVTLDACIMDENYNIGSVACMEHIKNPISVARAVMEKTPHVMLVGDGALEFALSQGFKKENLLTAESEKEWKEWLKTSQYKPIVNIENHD


Legend:
crystal structure = target: the molecule itself; test: crystal structure
[1] = target: T1, alpha subunit of mature G172D …; test: crystal structure

| Binder | binding result (crystal structure) | binding result [1] |
| --- | --- | --- |
| mature form of the G172D mutant of Flavobacterium glycosylasparaginase (one alpha and one beta chain) (complex) chain 1: TTNKPIVLSTWNFGLHANVEAWKVLSKGGKALDAVEKGVRLVEDDPTERSVGYGGRPDRDGRVTLDACIMDENYNIGSVACMEHIKNPISVARAVMEKTPHVMLVGDGALEFALSQGFKKENLLTAESEKEWKEWLKTSQYKPIVNIENHD chain 2: TIGMIALDAQGNLSGACTTSDMAYKMHGRVGDSPIIGAGLFVDNEIGAATATGHGEEVIRTVGTHLVVELMNQGRTPQQACKEAVERIVKIVNRRGKNLKDIQVGFIALNKKGEYGAYCIQDGFNFAVHDQKGNRLETPGFALK | binds |  |
| beta subunit of mature G172D Flavobacterium glycosylasparaginase (domain or fragment, UniProt Q47898 197-340, looked up) TIGMIALDAQGNLSGACTTSDMAYKMHGRVGDSPIIGAGLFVDNEIGAATATGHGEEVIRTVGTHLVVELMNQGRTPQQACKEAVERIVKIVNRRGKNLKDIQVGFIALNKKGEYGAYCIQDGFNFAVHDQKGNRLETPGFALK |  | binds |
